The values below come from US20190359687A1.

Experiment [1] has as its target Rhesus monkey glycophorin A on Rhesus monkey red blood cells (Rhesus monkey). Nature of the experiment: FACS, RBC Rh03.
The target in experiment [2] is Cynomolgus monkey glycophorin A on Cynomolgus monkey red blood cells (Cynomolgus monkey). In words: FACS, RBC Cy02.
The target in experiment [3] is Rhesus monkey glycophorin A on Rhesus monkey red blood cells (Rhesus monkey). Nature of the experiment: FACS, RBC Rh01. A general note: Flow cytometry measures light scatter and fluorescence of single cells or particles in a stream.
Experiment [4] concerns the target Cynomolgus monkey glycophorin A on Cynomolgus monkey red blood cells (Cynomolgus monkey). In words: FACS, RBC Cy01.
Experiment [5] concerns the target Rhesus monkey glycophorin A on Rhesus monkey red blood cells (Rhesus monkey). In words: FACS, RBC Rh02.
Experiment [6] deals with endogenous Cynomolgus monkey FVIII in whole blood (Cynomolgus monkey). In words: cell-based or functional assay.
Chain of endogenous Cynomolgus monkey FVIII in whole blood (Cynomolgus monkey) (chain, as listed by the source): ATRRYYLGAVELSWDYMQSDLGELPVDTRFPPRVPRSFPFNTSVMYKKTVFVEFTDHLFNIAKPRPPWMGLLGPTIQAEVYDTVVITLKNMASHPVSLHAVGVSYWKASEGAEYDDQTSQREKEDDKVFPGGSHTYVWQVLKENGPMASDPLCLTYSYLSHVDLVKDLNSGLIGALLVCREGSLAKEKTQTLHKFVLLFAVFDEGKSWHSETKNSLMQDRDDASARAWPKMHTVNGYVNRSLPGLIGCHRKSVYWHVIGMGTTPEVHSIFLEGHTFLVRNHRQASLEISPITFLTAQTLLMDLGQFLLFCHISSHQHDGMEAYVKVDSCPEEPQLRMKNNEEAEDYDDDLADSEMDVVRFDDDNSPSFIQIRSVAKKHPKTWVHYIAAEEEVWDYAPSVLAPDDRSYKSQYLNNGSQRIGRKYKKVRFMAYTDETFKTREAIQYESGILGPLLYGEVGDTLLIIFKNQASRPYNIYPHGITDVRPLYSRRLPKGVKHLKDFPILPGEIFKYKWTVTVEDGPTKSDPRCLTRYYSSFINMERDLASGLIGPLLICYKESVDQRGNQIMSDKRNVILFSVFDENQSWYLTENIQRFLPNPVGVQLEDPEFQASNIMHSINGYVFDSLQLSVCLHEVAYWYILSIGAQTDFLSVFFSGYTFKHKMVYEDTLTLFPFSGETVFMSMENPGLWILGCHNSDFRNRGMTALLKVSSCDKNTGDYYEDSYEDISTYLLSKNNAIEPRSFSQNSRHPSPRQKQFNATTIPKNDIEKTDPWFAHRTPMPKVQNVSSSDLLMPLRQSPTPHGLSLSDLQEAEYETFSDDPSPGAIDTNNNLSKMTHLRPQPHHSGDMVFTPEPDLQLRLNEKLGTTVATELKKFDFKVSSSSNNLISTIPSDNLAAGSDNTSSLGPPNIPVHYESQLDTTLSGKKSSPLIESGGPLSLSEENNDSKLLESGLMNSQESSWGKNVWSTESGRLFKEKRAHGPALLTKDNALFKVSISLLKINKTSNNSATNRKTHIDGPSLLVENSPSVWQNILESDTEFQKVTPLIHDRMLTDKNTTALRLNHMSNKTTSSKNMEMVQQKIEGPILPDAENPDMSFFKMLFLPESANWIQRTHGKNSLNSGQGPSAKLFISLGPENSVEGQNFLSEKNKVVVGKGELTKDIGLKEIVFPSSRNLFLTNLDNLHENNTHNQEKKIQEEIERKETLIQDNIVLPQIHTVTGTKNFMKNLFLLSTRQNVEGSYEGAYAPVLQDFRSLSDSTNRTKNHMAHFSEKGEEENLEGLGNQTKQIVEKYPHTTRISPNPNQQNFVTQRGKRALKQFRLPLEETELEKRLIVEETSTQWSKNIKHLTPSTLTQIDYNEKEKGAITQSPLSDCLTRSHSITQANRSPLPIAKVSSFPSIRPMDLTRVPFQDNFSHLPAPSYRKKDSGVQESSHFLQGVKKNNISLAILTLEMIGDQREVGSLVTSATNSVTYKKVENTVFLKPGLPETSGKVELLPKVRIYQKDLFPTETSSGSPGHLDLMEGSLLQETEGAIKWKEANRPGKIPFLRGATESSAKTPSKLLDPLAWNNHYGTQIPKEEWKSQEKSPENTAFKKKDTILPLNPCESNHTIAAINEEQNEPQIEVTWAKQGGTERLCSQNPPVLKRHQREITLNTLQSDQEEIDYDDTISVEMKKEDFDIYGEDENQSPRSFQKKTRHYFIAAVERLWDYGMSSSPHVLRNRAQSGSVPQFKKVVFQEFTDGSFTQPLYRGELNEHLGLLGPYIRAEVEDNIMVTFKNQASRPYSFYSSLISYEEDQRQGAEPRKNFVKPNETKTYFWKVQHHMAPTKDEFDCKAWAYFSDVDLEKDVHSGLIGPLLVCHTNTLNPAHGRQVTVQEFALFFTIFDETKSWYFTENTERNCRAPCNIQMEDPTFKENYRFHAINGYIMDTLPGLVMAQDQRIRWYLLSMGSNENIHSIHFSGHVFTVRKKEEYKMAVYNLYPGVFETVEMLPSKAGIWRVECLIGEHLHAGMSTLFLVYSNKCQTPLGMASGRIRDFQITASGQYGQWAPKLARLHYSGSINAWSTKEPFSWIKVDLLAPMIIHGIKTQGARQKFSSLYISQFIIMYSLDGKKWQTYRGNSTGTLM

Chain of Rhesus monkey glycophorin A on Rhesus monkey red blood cells (Rhesus monkey) (chain, as listed by the source, form in doubt): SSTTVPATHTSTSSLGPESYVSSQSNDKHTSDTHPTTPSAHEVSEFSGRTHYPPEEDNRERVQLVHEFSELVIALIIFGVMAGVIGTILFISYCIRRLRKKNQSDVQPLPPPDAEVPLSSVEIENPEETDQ

As for Hu igG isotype (antibody), the fluorescence intensity amounted to 2 in experiment [1]; 3 in experiment [2]; 2 in experiment [3]; 2 in experiment [4]; 2 in experiment [5].

As for “anti-FVIII neutralizing monoclonal antibody BO2C11”, the Hemochron aPTT clotting time, Cyno whole blood in experiment [6] stood at 180 s.
